In the nanobody polyreactivity screen of Harvey et al. (2022):

Assay: yeast display, Sf9 membrane polyspecificity reagent, FACS + sequencing; frameworks hold sequencing errors
Outline: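 After 36–48 hours of galactose induction, yeast (Saccharomyces cerevisiae BJ5465) displaying a synthetic nanobody library were stained at 4 °C for 1 hour with 10% biotinylated, detergent-solubilized Sf9 membrane reagent. Streptavidin microbeads enriched the stained cells before FACS sorting into low and high (top ~1%) gates on anti-HA and streptavidin fluorescence. Each clone's polyreactivity label reflects its gate of origin.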

Sequence | polyreactivity (PSR sort gate)
QVQLVESGGGLVQAGGSLRLSCAASGPTFHGYDMGWNRQAPGKERELVARINWSDGRTYYADSVKGRFTISRDNAKNTVYLQMISLKPEDTAVYYCAADKTGSYAPAWYYYWGQGTQVTVSS | low polyreactivity
QVQLVESGGGLVQAGGSLRLSCAASGRIFVGYAMGWYRQAPGKERELVAAINRSGSSTYYADSVKGRFTISRDNAKNTVYLQMNSLKPEDTAVYYCNARSANRYGPRYDYWGQGTQVTVSS | high polyreactivity
QVQLVESGGGLVQAGGSLRLSCAASGRTFVLYTMGWYRQAPGKERELVAVGSTYYADSVKGRFTISRDNAKNTVYLQMNSLIAEDTAVYYCAADIHWYGYYYWGLGTQVTVSS | high polyreactivity
QVQLEESGGGLVQAGGSLRLSCAASGSIFPFYAMGRYRQAPGKERELVAAISDRGGSTYYADSVKGRFTISRDNAKNTVYLQMNSLKPEDTAVYYCAKGGGVSQGYTDEYDYWGQGTQVTVSS | low polyreactivity
QVQLVESGGGLVQAGGSLRLSCAASGFIFSKYAMGWYRQAPGKERELVAAISWSGGSTYYADSVKGRFTISRDNAKNTVYLQMNSLKPEDTAVYYCAADWYFELFRVYAEYDYWGQGTQVTVSS | low polyreactivity
QVQLVESGGVLVQAVGSLRLSCAASGSIFRLYALGWYREARGKEREFVATITWSGGSTSYADSVKGRFTISRDNAKNTVYLQMNSLKPEDTAVYYCAAKRRYWLYDWGQGTQVTVSS | high polyreactivity
QVQLVESGGGLVQAGGSLRLSCAASGRTFVNNAMGWYRQAPGKERELVAAITRSGGRTYYADSVKGRFTISRDNAKNTVYLQMNSLKPEDTAVYYCATANVRLRHDDYWGQGTQVTVSS | high polyreactivity
QVQLVESGGGLVQAGGSLRLSCAASGLTSWYYAMGWYRQAPGKERELVAAITSGGSTYYADSVKGRFTISRDNAKNTVYLQMNSLKPEDTAVYYCAKKKRSYYYYPYDYWGQGTQVTVSS | high polyreactivity
QGQLVESGGGLVQAGGSLLLICAASGGTFLTYAMGWYRQAPGKERELVAAITSGGSTKYADSVKGRFTISRDNAKNTVYLQMNSLKPEDTAVYYCAADSVRDYVLWWAYSRSDYWGQGTQVTVSS | low polyreactivity
QVQLVESGGGLVQAGGSLRLSCAASGSNFYPYAMGWYRQAPGKERELVAAITGTGGSTYYADSVKGRFTISRDNAKNTVYLQMNSLKPEDTAVYYCATRRRYYYSRYNYWGQGTQVTVSS | high polyreactivity
QVQLVESGGGLVQAGGSLRLSCAASGRTFARNAMGWYRQAAGKERELVAAITSIGTRTYYADAVKGRFTISRDNAKNTVYLQMNSLKPEDTAVYYCNKKRTADYDYWGQGTQVSVSS | low polyreactivity
QVQLVESGGGLVQAGGSLRLSCAASGRIFTHNAMGWYRQAPGKERELVAAITSGGRTTYADSVKGRFTISRDNAKNTVYLQRNSLKPEDTAVYYCNADTGLGSLDFDKRDYWGQGTQVTVSS | low polyreactivity
QVQIVESGGGLVQAGGSLRLSCAPSGRTFVGFAKGWYRQAPGKERELVAAISRTGGSTYYADSVKGRFTISRDNAKNTVYLQMNSLKPEDTAVYYCNAVTLSSTYGGHDYWGQGTQVTVSS | high polyreactivity
QVQLVESGGGLVQSGGSLRLSCAASGITTRTYAMGWYRQAPGKDRELVAAISDSGDRTYYADSVKGRFTISRDNAKNTVYLQMNSLKPEDTAVYYCAVDAPGPRGEYWGQGTKVTVSS | low polyreactivity
QVQLEESGGGLVQAGGSLRLSCAASGSTFGKNAMGWYRQAPGKERELVASITWRGGSTYYADSVKGRFTISRDNAKNTVYLQMNSLKPEDTAVYYCAADYVVSAFDYWGQGTQVTVSS | low polyreactivity
QVQLVESGGGLVQAGGSLRLSCAASGRIIGLYTMGWYRQAPGKERELVAAINIRGTRTYYADSVKGRFTISRDNAKNTVYLQMNSLKPEDTAVYYCAAASYRSGRYTFDYWGQGTQVTVSS | high polyreactivity
QVQLVESGGGLVQAGGSLRLSCAASGFTFPYYSMGWYRQAPGKERELVAAINRSGGTKYADSVKGRFTISRDNAKNTVYVQMNSLKPEDTAVYDCAADSFYSRSRYDYWGQGSQVTVSS | high polyreactivity
QVQLVDSGGGLVQAGGSLRLSCAASGYSFYFYAMGWYRQAPGKERELVAAITGGGTTSYADSVKGRFTISRDNAKNTVYLQMNSLKPEDTAVYYCNVLFADKSDYWGQGTLVTVSS | low polyreactivity
QVHHVESGGGLVQAGGSLRISCAASGAIFFFNTMGWYRLAPGKERELVAVITSGGSTYYADSVKGRFTISRDNAKNTVYLQMNSLKPEDTAVYYCNAYTWGVGSSLDDVGYWGQGTQVTVSS | low polyreactivity
QVQLVESGGGLVQAGCSLRLICAASGYIFVIYAMGWNRQAPGKERELVAAISSSGAGTYYADSVKGRFTISRDNAKNTVYLQMNSLKPEDTAVYYCAASESAVFDGYDYWGQGTQVTVSS | high polyreactivity
QVQLVESGGGLVQAGGSLRLSCAASGSIFKIYAKGWYRQAPGKERELVASITGSGGSTYYADSVKGRFTISRDNAKNTVYLQMNSLKPEDTAVYYCAAAVLGSSKSEVDPDRPEYYYWGQGTQVTVSS | low polyreactivity
QVQLEESGGGLVQAGGSLRLSCAASGIIIVRNAMGWYRQAPGKEREFVAAISSSGGSTYYADSVKGRFTISRDNGKNTVYLQMNSLNPEDTAVYNCNARHRQWARGYWGQGTQVTVSS | high polyreactivity

Sequence | polyreactivity (PSR sort gate)
QVHLVESGGGLVQAGGSLRLSCAASGSIFDVNAMGWYRQAPGKERQLVAAISDSGGSTYYADSVKGRFTISRDNAKNTVYLQMNSLKPEDTAVYYCNADWSSYNYYDFDYWGQGTQVTVSS | low polyreactivity
QVQLVESGGGLDQARGSLRLSCAASGSIFWKYAMGWYRQAPWKERELVAAISRSSSTTYYADSVKGRFTISRDNAKNTVYLQMNSLKPEDTAVYYCAAYYRSRVSDDYWGQGTQVTVSS | high polyreactivity
QVQLVESGGGLVQAGGSLRLSCAASGRIFWWYAMGWYRQAPGKERELVAVIDDSGGITYYADSVKGRFTISRDNAKNTVYLQRNSLKPEDTAVYYCANYYWGQGTQVTVSS | low polyreactivity
QVQLVESGGGLVQAGGSLRLSCAASGFTISLNTMGWYRQAPGKERELVAAINSGDSTYADSVKGRFTISRDNAKNTGYFQMNSLKPEDTAVYYCNADPDWWYPYFYWGQGTQVTVSS | low polyreactivity
QDQHVESVGGLVQAGGGLPLSCAASGRTFTYNAMGWYRQPPGKERELVAAITSGGTTNYADSVKGRFTISRDNAKNTVYLQMNSLKQEDTAVYYCAARRVYYSYRRYYYWGQGTQVTVSS | low polyreactivity
QVQHVESGVGLVQAGGSLRLSCAASGSTFDRYAMRWYRQAPGKERELVAAISWSAGRTYYADSVKGRFTISRDNAKNTVYLQMNSLKPEDTAVYYCAADQIVSGTYDYYWGQGTQVTVSS | low polyreactivity
QVQLVESGGGLVQAGGSLRISCAASGFTFDTNAMGWYRQAPGKERELVAAISRIGGRTYADSVKGRFTISRDNAKNTVYLQMNSLKPEDTAVYYCADDRSSAYRWRSAGYYKYDYWGQGTQVTVSS | low polyreactivity
QVQLVESGGGLVQAGGSLRLSCAASGLIFSYYAMGWYRQAPGKERELVAAITGSGGSTYYADSVKGRFTISRDNAKNTVYLQMNSLKPEDTAVYYCAAGRYAYTLSRKYDYWGQGTQVTVSS | high polyreactivity
QVQLVESGGGLVQARGSLRLSSAAYGRTLYSYAMGWYRQAPGKERELVATIRRSGGSTNYADSVKGRFTISRDNAKNTVYLQMNSLKPEDTAVYYCAAVSFKPEYYYWGQGTQVTVSS | high polyreactivity
QVQLVESGGGLVQAGGSLRLSCAASGRTFKSYSMGWYRPAPGKERELVAAISWSGGSTYYADSVKGRFTISRDNAKNTVYLQMNSLKPEDTAVYYCAKRGYASGSKWDYGYWGQGTQVTVSS | high polyreactivity
QVQLVESGGGLVQAGGSLRLSCAASGRTFKYNAMGWYRQAPGKERELVATISGSGGRTYYADSVKGRFTISRDNAKNTVYLQMNSLTPEDTAVYYCAAVPSYHSTSPFYYWGLGTQVTVSS | high polyreactivity
QDQLVESGGGLVQAGGSLRLSCAASGSIFSYYAMGWYRQAPGKERELVAAIRRGGSTYYADSVKGRFTISRDNEKNSVYLQMNSLKPEDNAVYYCAASLGWRFYYWGQGTQVTVSS | high polyreactivity
QVQLVESGGGLVQAGGSLRLSCAASGSIFNWYAMGWSRQAPGKERELVAAISEDGGSTYYADSVKGRFTISRDNAKNTVYLQMNTLKPEDTAVYYCATPVASVTGYDYWGQGTQVTVSS | low polyreactivity
QVQLVESGGCLVQAGASLRLSCAASGSISKSYAMGWYRQAPGKEREFVAAISWRGGSTYADSVKGRFTISRDNAKNTVYLQMNSLKPEDTAVYYCAATNYGTFWGGQSERYDYWGQGSQVTVSS | low polyreactivity
LVQLQESGGGLVQACGSLRLSCAASGDIFDADIMGWYRQAPGKERELVASITDGGSTNYADSVKGRFTISRDNAKNTVYLPMNSLKPEDTAVYYCAKPATYYELDYWGQGTQVTVSS | low polyreactivity
QVQLVESGGGLVQAGGSLRLSCAASGLTFYTYAMGWYRQAPGKERELVAAISGRGSRTFYADSVKGRFTISRDNAKNTVYLQMNSLKPEDTAVYYCAARVWSSFTGAYDYWGQGTQVTVSS | high polyreactivity
QVQLVESGGGLVQAGGSLRLSCAASGSIFVTYAMGWYRQAPGKERELVARITSGGSTYYADSVKGRFTISRDNAKNTVYLQMNSLKPEDTAVYYCAARRWLRYDLDYGGQGTQVTVSS | low polyreactivity
QVQLVESGGGLVQAGGSLRLSCAASGSTFPFYAMGWYRQAPGKERELVAAIRYTGNTYYADSVKGRFTISRDNAKNTVYLQMNSLKPEDTAVYYCAADADYWAYGYWGQGTQVTVSS | low polyreactivity
QVQLVESGGGLVQAGGSLRLSCAASGRIFDIYGMGWYRQAPGKERELVAAITSGGSTYYADSVKGRFTISRDNAKNTVYLQMNSLKPEDTAVYYCAADSVLLKDTGYDYWGQGTQVTVSS | low polyreactivity
QVQLVESGGGLVQAGGSLRLSCAASGRTFGIYAMGRYRQAPGKERELVAAITGRGGSTHYADSVKGRFTISRDNAKNTVYLQMNSLKPEDTAVYYCAADYRYNRGITSNKDYDYWGQGTQVTVSS | low polyreactivity
QVQLVESGGGLVQAGGSRRLSCAASGSIFSGNTMGWYRQAPGKERELVAAISSGGSTKYADSVKGRFTISRDNAKNTVYFQMNRLNPEDSAVYFCGATSSYRLRDRHRIWYGYWGQGTEVTVSS | high polyreactivity
